Measurements published in article PMC9908901, “Identification of a tomato UDP-arabinosyltransferase for airborne volatile reception” (Nature Communications, 2023).

How the values were obtained:
Assay in all cases: steady-state kinetics, HPLC-MS of glycoside product
Format in all cases: biochemical, Solanum lycopersicum
[1] = substrate: CC/C=C\CCO[C@@H]1O[C@H](CO)[C@@H](O)[C@H](O)[C@H]1O; settings: UDP-arabinose fixed as donor, 50 mM potassium phosphate pH 7.5, 30 °C
Text: (§1) steady-state kinetics, HPLC-MS of glycoside product on UGT91R1

[2] = substrate: O=c1ccn([C@@H]2O[C@H](COP(=O)(O)OP(=O)(O)O[C@H]3OC[C@H](O)[C@H](O)[C@H]3O)[C@@H](O)[C@H]2O)c(=O)[nH]1; settings: HexGlc fixed as acceptor, 50 mM potassium phosphate pH 7.5, 30 °C
Text: as §1

[3] = substrate: O=c1ccn([C@@H]2O[C@H](COP(=O)(O)OP(=O)(O)O[C@H]3OC[C@@H](O)[C@H](O)[C@H]3O)[C@@H](O)[C@H]2O)c(=O)[nH]1; settings: HexGlc fixed as acceptor, 50 mM potassium phosphate pH 7.5, 30 °C
Text: as §1

B1: UGT91R1 (Solanum lycopersicum) (protein)
chain: MAENGKKLHIAVFPWLAFGHMIPYLELSKLIAQKGHKISFISTPRNIDRLPKLPPNLTPFLNFVKLPMPHVEKLPENAEATIDLPYEQVKYLKLAQDALQESMSKFIEDSDIDFILFDFTSYWVPSIASKFNIPSGYFSIFIAAFLGFTGPVPGLNNDYEIRMTPEEYTVTPKWVPFETTVAFKLFEVSRIFEASMKGEEENIADIVRYYRSVENCDFLLVRSCSEFEPEWLKVVGDIHRKPVFPVGQLPTTPYEDDSTKIDAWREIKLWLDKQEKGKVIYVAFGSEAKPSQNELTELSLGLELSGLPFFWVLRIKRGESDDELIQLPEGFEERTKGRGIVCTSWAPQLKILSHDSVGGFLTHSGWSSVVEAIQFEKSLVLLTFLADQGINARLLEEKKMAYSIPRNDQDGSFTRDSVAESLNLVLVKEEGFIYREKIKEMKDLFCDKKRQNNYVENLLSFLQDYEKIKA
notes: full length, synthetic cDNA in pET15b, E. coli BL21(DE3), HisTrap purified
Km [1]: 5.9 ± 0.5 µM
kcat [1]: 0.33 ± 0.009 s⁻¹
kcat/Km [1]: 57000 ± 5000 M⁻¹ s⁻¹
Km [2]: 38 ± 4 µM
kcat [2]: 1.9 ± 0.1 s⁻¹
kcat/Km [2]: 51000 ± 5000 M⁻¹ s⁻¹
Km [3]: 603 ± 75 µM
kcat [3]: 1.8 ± 0.1 s⁻¹
kcat/Km [3]: 3000 ± 400 M⁻¹ s⁻¹
